In patent publication US20110104788A1 (published 2011):

B2: mouse coagulation factor X (enzyme)
chain: ANSFFEEFKKGNLERECMEEICSYEEVREIFEDDEKTKEYWTKYKDGDQCESSPCQNQGACRDGIGGYTCTCSEGFEGKNCELFVRKLCRLDNGDCDQFCREEQNSVVCSCASGYFLGNDGKSCISTAPFPCGKITTGRRKRSVALNTSDSELDLEDALLDEDFLSPTENPIELLNLNETQPERSSDDLVRIVGGRECKDGECPWQALLINEDNEGFCGGTILNEFYILTAAHCLHQARRFKVRVGDRNTEKEEGNEMVHEVDVVIKHNKFQRDTYDYDIAVLRLKTPITFRMNVAPACLPQKDWAESTLMTQKTGIVSGFGRTHEKGRQSNILKMLEVPYVDRNTCKLSTSFSITQNMFCAGYEAKLEDACQGDSGGPHVTRFKNTYYVTGIVSWGEGCARKGKYGIYTKVTTFLKWIDRSMKARVGPTAETPRTAGPPN

Assays:
[1] = molecular target: T1, human coagulation factor X (FX), full-length zymogen (human, UniProt P00742 41-488, genetically encoded glutamic acid residues of the Gla domain converted to γ-carboxyglutamic acid); assay: SPR (Biacore T100); human FX immobilised on CM5 chip, inhibitor injected; heterogeneous ligand model
T1 construct: mature; also called human FX; hFX

[2] = molecular target: B2; assay: SPR (Biacore T100); mouse FX immobilised on CM5 chip, inhibitor injected; heterogeneous ligand model
[3] = molecular target: Ixolaris, 12 kDa two-Kunitz domain protein isolated from tick salivary gland (tick, UniProt Q964Q0 27-165)
[4] = molecular target: T2, adenovirus serotype 5 (Ad5) virus particle (human adenovirus serotype 5, UniProt P04133 1-952); assay: SPR; biotinylated EGF2-SP FXa coupled to SA chip, Ad5 injected
T2 construct: also called Ad5CMVlacZ (control virus with unmodified hexon); intact virus Ad5

B1: Factor X-binding protein (X-bp) from Deinagkistrodon acutus (other)
chain 1: DCSSGWSSYEGHCYKVFKQSKTWADAESFCTKQVNGGHLVSIESSGEADFVGQLIAQKIKSAKIHVWIGLRAQNKEKQCSIEWSDGSSISYENWIEEESKKCLGVHIETGFHKWENFYCEQQDPFVCEA
chain 2: DCPSDWSSYEGHCYKPFNEPKNWADAENFCTQQHTGSHLVSFQSTEEADFVVKLAFQTFDYGIFWMGLSKIWNQCNWQWSNAAMLKYTDWAEESYCVYFKSTNNKWRSITCRMIANFVCEFQA
Kd [1]: 118 pM | koff [1]: 0.00023 s⁻¹ | kon [1]: 1.96e+06 M⁻¹ s⁻¹ | Kd [2]: 1040 pM | koff [2]: 0.00031 s⁻¹ | kon [2]: 296000 M⁻¹ s⁻¹

B2
Kd [3]: 0.515 pM | koff [3]: 8.1e-07 s⁻¹ | kon [3]: 1.57e+06 M⁻¹ s⁻¹

B3: human FXa mutant containing the C-terminal EGF2-SP domain (EGF2-SP FXa) (enzyme)
chain: TRKLCSLDNGDCDQFCHEEQNSVVCSCARGYTLADNGKACIPTGPYPCGKQTLERIVGGQECKDGECPWQALLINEENEGFCGGTILSEFYILTAAHCLYQAKRFKVRVGDRNTEQEEGGEAVHEVEVVIKHNRFTKETYDFDIAVLRLKTPITFRMNVAPACLPERDWAESTLMTQKTGIVSGFGRTHEKGRQSTRLKMLEVPYVDRNSCKLSSSFIITQNMFCAGYDTKQEDACQGDSGGPHVTRFKDTYFVTGIVSWGEGCARKGKYGIYTKVTAFLKWIDRSMKTRGLPKAKSHAPEVITSSPLK
modifications: biotinylated with biotin-FPRCK
notes: domain: EGF2-SP; also called EGF2-SP fragment; rFX EGF2-SP
binding result [4]: no binding
